Laboratory results taken from patent US12186374B2 (Sanofi-Aventis Deutschland GmbH, priority 2014, dated 2025).

Tested on: patients with Type 2 diabetes mellitus (T2DM)
Experiment: Treatment-emergent adverse events incl. serious, fatal, leading to discontinuation (Example 2)
Conditions: Safety population
[1] = SOC, PT ≥ 3% in any treatment group

Gly(A21)-Arg(B31)-Arg(B32)-human insulin [Insulin Glargine]
TEAE leading to permanent treatment discontinuation: Abdominal distension (PT): 0 n (%) | TEAE leading to permanent treatment discontinuation: Abdominal pain (PT): 0 n (%) | TEAE leading to permanent treatment discontinuation: Acute myocardial infarction (PT): 1 (0.2%) n (%) | TEAE leading to permanent treatment discontinuation: Acute pulmonary oedema (PT): 1 (0.2%) n (%) | TEAE leading to permanent treatment discontinuation: Alanine aminotransferase increased (PT): 0 n (%) | TEAE leading to permanent treatment discontinuation: Anaphylactic reaction (PT): 0 n (%) | TEAE leading to permanent treatment discontinuation: Atrial fibrillation (PT): 0 n (%) | TEAE leading to permanent treatment discontinuation: Back pain (PT): 0 n (%) | TEAE leading to permanent treatment discontinuation: Bacteraemia (PT): 0 n (%) | TEAE leading to permanent treatment discontinuation: Blood creatinine increased (PT): 0 n (%) | TEAE leading to permanent treatment discontinuation: Bronchitis (PT): 1 (0.2%) n (%) | TEAE leading to permanent treatment discontinuation: Cardiac failure acute (PT): 1 (0.2%) n (%) | TEAE leading to permanent treatment discontinuation: Cardiac failure congestive (PT): 0 n (%) | TEAE leading to permanent treatment discontinuation: Colitis (PT): 0 n (%) | TEAE leading to permanent treatment discontinuation: Comminuted fracture (PT): 1 (0.2%) n (%) | TEAE leading to permanent treatment discontinuation: Cough (PT): 1 (0.2%) n (%) | TEAE leading to permanent treatment discontinuation: Death (PT): 0 n (%) | TEAE leading to permanent treatment discontinuation: Decreased appetite (PT): 0 n (%) | TEAE leading to permanent treatment discontinuation: Depression (PT): 1 (0.2%) n (%) | TEAE leading to permanent treatment discontinuation: Diabetic mononeuropathy (PT): 0 n (%) | TEAE leading to permanent treatment discontinuation: Diarrhoea (PT): 0 n (%) | TEAE leading to permanent treatment discontinuation: Drug hypersensitivity (PT): 1 (0.2%) n (%) | TEAE leading to permanent treatment discontinuation: Dyspepsia (PT): 1 (0.2%) n (%) | TEAE leading to permanent treatment discontinuation: Extradural abscess (PT): 0 n (%) | TEAE leading to permanent treatment discontinuation: Fatigue (PT): 1 (0.2%) n (%) | TEAE leading to permanent treatment discontinuation: Gastritis erosive (PT): 0 n (%) | TEAE leading to permanent treatment discontinuation: Headache (PT): 1 (0.2%) n (%) | TEAE leading to permanent treatment discontinuation: Injection site erythema (PT): 0 n (%) | TEAE leading to permanent treatment discontinuation: Insomnia (PT): 0 n (%) | TEAE leading to permanent treatment discontinuation: Lipase increased (PT): 1 (0.2%) n (%) | TEAE leading to permanent treatment discontinuation: Lung cancer metastatic (PT): 0 n (%) | TEAE leading to permanent treatment discontinuation: Lung neoplasm malignant (PT): 0 n (%) | TEAE leading to permanent treatment discontinuation: Meningitis staphylococcal (PT): 0 n (%) | TEAE leading to permanent treatment discontinuation: Myocardial infarction (PT): 1 (0.2%) n (%) | TEAE leading to permanent treatment discontinuation: Nausea (PT): 0 n (%) | TEAE leading to permanent treatment discontinuation: Pancreatic carcinoma (PT): 1 (0.2%) n (%) | TEAE leading to permanent treatment discontinuation: Rash (PT): 1 (0.2%) n (%) | TEAE leading to permanent treatment discontinuation: Skin burning sensation (PT): 0 n (%) | TEAE leading to permanent treatment discontinuation: Urinary tract infection (PT): 0 n (%) | TEAE leading to permanent treatment discontinuation: Urticaria (PT): 0 n (%) | TEAE leading to permanent treatment discontinuation: Vomiting (PT): 0 n (%) | TEAE: Gastrointestinal disorders [1]: 59 (12.6%) n (%) | TEAE: Infections and infestations [1]: 126 (27.0%) n (%) | TEAE: Musculoskeletal and connective tissue disorders [1]: 41 (8.8%) n (%) | TEAE: Nervous system disorders [1]: 30 (6.4%) n (%) | Serious TEAE: Blood and lymphatic system disorders (SOC): 1 (0.2%) n (%) | Serious TEAE: Cardiac disorders (SOC): 6 (1.3%) n (%) | Serious TEAE: Gastrointestinal disorders (SOC): 0 n (%) | Serious TEAE: General disorders and administration site conditions (SOC): 1 (0.2%) n (%) | Serious TEAE: Hepatobiliary disorders (SOC): 0 n (%) | Serious TEAE: Immune system disorders (SOC): 0 n (%) | Serious TEAE: Infections and infestations (SOC): 2 (0.4%) n (%) | Serious TEAE: Injury, poisoning and procedural complications (SOC): 1 (0.2%) n (%) | Serious TEAE: Investigations (SOC): 1 (0.2%) n (%) | Serious TEAE: Metabolism and nutrition disorders (SOC): 0 n (%) | Serious TEAE: Musculoskeletal and connective tissue disorders (SOC): 1 (0.2%) n (%) | Serious TEAE: Neoplasms benign, malignant and unspecified (incl cysts and polyps) (SOC): 4 (0.9%) n (%) | Serious TEAE: Nervous system disorders (SOC): 1 (0.2%) n (%) | Serious TEAE: Renal and urinary disorders (SOC): 2 (0.4%) n (%) | Serious TEAE: Reproductive system and breast disorders (SOC): 0 n (%) | Serious TEAE: Respiratory, thoracic and mediastinal disorders (SOC): 3 (0.6%) n (%) | Serious TEAE: Skin and subcutaneous tissue disorders (SOC): 0 n (%) | Serious TEAE: Vascular disorders (SOC): 1 (0.2%) n (%) | TEAE leading to death: Cardiac disorders (SOC): 2 (0.4%) n (%) | TEAE leading to death: General disorders and administration site conditions (SOC): 0 n (%) | TEAE leading to death: Neoplasms benign, malignant and unspecified (incl cysts and polyps) (SOC): 1 (0.2%) n (%) | TEAE leading to death: Respiratory, thoracic and mediastinal disorders (SOC): 1 (0.2%) n (%) | TEAE leading to permanent treatment discontinuation: Cardiac disorders (SOC): 3 (0.6%) n (%) | TEAE leading to permanent treatment discontinuation: Gastrointestinal disorders (SOC): 1 (0.2%) n (%) | TEAE leading to permanent treatment discontinuation: General disorders and administration site conditions (SOC): 1 (0.2%) n (%) | TEAE leading to permanent treatment discontinuation: Immune system disorders (SOC): 1 (0.2%) n (%) | TEAE leading to permanent treatment discontinuation: Infections and infestations (SOC): 1 (0.2%) n (%) | TEAE leading to permanent treatment discontinuation: Injury, poisoning and procedural complications (SOC): 1 (0.2%) n (%) | TEAE leading to permanent treatment discontinuation: Investigations (SOC): 1 (0.2%) n (%) | TEAE leading to permanent treatment discontinuation: Metabolism and nutrition disorders (SOC): 0 n (%) | TEAE leading to permanent treatment discontinuation: Musculoskeletal and connective tissue disorders (SOC): 0 n (%) | TEAE leading to permanent treatment discontinuation: Neoplasms benign, malignant and unspecified (incl cysts and polyps) (SOC): 1 (0.2%) n (%) | TEAE leading to permanent treatment discontinuation: Nervous system disorders (SOC): 1 (0.2%) n (%) | TEAE leading to permanent treatment discontinuation: Psychiatric disorders (SOC): 1 (0.2%) n (%) | TEAE leading to permanent treatment discontinuation: Respiratory, thoracic and mediastinal disorders (SOC): 2 (0.4%) n (%) | TEAE leading to permanent treatment discontinuation: Skin and subcutaneous tissue disorders (SOC): 1 (0.2%) n (%) | Patients with any TEAE: 227 (48.6%) n (%) | Patients with any TEAE leading to death: 3 (0.6%) n (%) | Patients with any TEAE leading to permanent treatment discontinuation: 9 (1.9%) n (%) | Patients with any serious TEAE: 19 (4.1%) n (%)
